The target of experiment [1] is recombinant purified FRα (ECL assay calibrator) (human) (UniProt P15328). Kind of experiment: ECL sandwich capture 19D4.B7 / detection 5C12.H8; calibrator incubated overnight with 10 µg/mL MORAb-003.
For experiment [2] the target is unchanged. Put plainly: ECL sandwich capture 6A2.G7 / detection 30G6.G6.G4.E9; calibrator incubated overnight with 10 µg/mL MORAb-003.
The target is the same in experiment [3]. Put plainly: ECL sandwich competition; competitors 9F3 capture / 24F12 detection; FRα standard STD02; MORAb-003 10 µg/mL.
For experiment [4], the target named is endogenous folate receptor alpha in human serum and plasma samples (human) (UniProt P15328). Put plainly: ECL sandwich capture 24H8.F3 / detection 19D4.B7; serum incubated overnight with 10 µg/mL MORAb-003.
Chain of endogenous folate receptor alpha in human serum and plasma samples (human) (P15328 25-234 limits assumed, form in doubt): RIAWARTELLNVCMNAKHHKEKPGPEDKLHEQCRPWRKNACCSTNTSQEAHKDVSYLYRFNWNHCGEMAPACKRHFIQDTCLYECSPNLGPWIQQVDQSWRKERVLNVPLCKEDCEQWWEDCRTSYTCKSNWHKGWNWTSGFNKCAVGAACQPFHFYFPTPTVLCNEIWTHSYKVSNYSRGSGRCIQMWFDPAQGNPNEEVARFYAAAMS
Experiment [5] has as its target recombinant purified FRα (ECL assay calibrator) (human) (UniProt P15328). Put plainly: ECL sandwich competition; competitors 9F3 capture / 24F12 detection; FRα standard STD02; MORAb-003 50 µg/mL.
For experiment [6] the target is unchanged. Put plainly: ECL sandwich capture 19D2.G9 / detection 30G6.G6.G4.E9; calibrator incubated overnight with 10 µg/mL MORAb-003.
For experiment [7], the target named is endogenous folate receptor alpha in human serum and plasma samples (human) (UniProt P15328). Put plainly: ECL sandwich competition; competitors 24H8.D3 capture / 19D4.B7 detection; serum of sample #DLSO-015; MORAb-003 100 µg/mL.
Experiment [8] has the same target. Kind of experiment: ECL sandwich capture 24H8.F3 / detection 30G6.G6.G4.E9; serum incubated overnight with 10 µg/mL MORAb-003.
For experiment [9], the target named is recombinant purified FRα (ECL assay calibrator) (human) (UniProt P15328). Put plainly: ECL sandwich competition; competitors 9F3 capture / 24F12 detection; FRα standard STD04; MORAb-003 10 µg/mL.
The target in experiment [10] is endogenous folate receptor alpha in human serum and plasma samples (human) (UniProt P15328). Kind of experiment: ECL sandwich capture 19D4.B7 / detection 24H8.D3; serum incubated overnight with 10 µg/mL MORAb-003.
Experiment [11] concerns the target recombinant purified FRα (ECL assay calibrator) (human) (UniProt P15328). Kind of experiment: ECL sandwich capture 1D2.G8.G10 / detection 19D4.B7; calibrator incubated overnight with 10 µg/mL MORAb-003.
Experiment [12] has the same target. Put plainly: ECL sandwich capture 19D2.G9 / detection 19D4.B7; calibrator incubated overnight with 10 µg/mL MORAb-003.
For experiment [13] the target is unchanged. Put plainly: ECL sandwich capture 1A8.G11.E7 / detection 19D4.B7; calibrator incubated overnight with 10 µg/mL MORAb-003.
Experiment [14] shares this target. Put plainly: ECL sandwich capture 26A9.C4 / detection 19D4.B7; calibrator incubated overnight with 10 µg/mL MORAb-003.
In experiment [15] the target is endogenous folate receptor alpha in human serum and plasma samples (human) (UniProt P15328). Kind of experiment: ECL sandwich capture 19D4.B7 / detection 26A9.C4; serum incubated overnight with 10 µg/mL MORAb-003.
In experiment [16] the target is recombinant purified FRα (ECL assay calibrator) (human) (UniProt P15328). Kind of experiment: ECL sandwich capture 6A2.G7 / detection 24H8.D3; calibrator incubated overnight with 10 µg/mL MORAb-003.
The target of experiment [17] is endogenous folate receptor alpha in human serum and plasma samples (human) (UniProt P15328). Put plainly: ECL sandwich capture 6A2.G7 / detection 1C6.E12.G8; serum incubated overnight with 10 µg/mL MORAb-003.
Experiment [18] addresses recombinant purified FRα (ECL assay calibrator) (human) (UniProt P15328). Put plainly: ECL sandwich capture 6A2.G7 / detection 19D4.B7; calibrator incubated overnight with 10 µg/mL MORAb-003.
Experiment [19] shares this target. Put plainly: ECL sandwich capture 28H12.G9 / detection 19D4.B7; calibrator incubated overnight with 10 µg/mL MORAb-003.
Experiment [20] shares this target. Kind of experiment: ECL sandwich capture 19D4.B7 / detection 2F11.F8; calibrator incubated overnight with 10 µg/mL MORAb-003.
In experiment [21] the target is endogenous folate receptor alpha in human serum and plasma samples (human) (UniProt P15328). Put plainly: ECL sandwich capture 19D2.G9 / detection 19D4.B7; serum incubated overnight with 10 µg/mL MORAb-003.
The target is the same in experiment [22]. Put plainly: ECL sandwich, positive control +CONT: capture 26B3.F2 (f1) / detection 19D4.B7; serum incubated overnight with 10 µg/mL MORAb-003.
Experiment [23] deals with recombinant purified FRα (ECL assay calibrator) (human) (UniProt P15328). Put plainly: ECL sandwich capture 6A2.G7 / detection 2F11.F8; calibrator incubated overnight with 10 µg/mL MORAb-003.
For experiment [24] the target is unchanged. Put plainly: ECL sandwich competition; competitors 9F3 capture / 24F12 detection; FRα standard STD08; MORAb-003 10 µg/mL.

Chain of recombinant purified FRα (ECL assay calibrator) (human) (P15328 25-234 limits assumed): as the sequence (P15328 25-234 limits assumed, form in doubt) above

B1: farletuzumab (MORAb-003) (antibody, part only; not given: Constant regions, V domains shown, not shown: another chain or arm of the molecule)
VH: EVQLVESGGGVVQPGRSLRLSCSASGFTFSGYGLSWVRQAPGKGLEWVAMISSGGSYTYYADSVKGRFAISRDNAKNTLFLQMDSLRPEDTGVYFCARHGDDPAWFAYWGQGTPVTVSS
VL: DIQLTQSPSSLSASVGDRVTITCSVSSSISSNNLHWYQQKPGKAPKPWIYGTSNLASGVPSRFSGSGSGTDYTFTISSLQPEDIATYYCQQWSSYPYMYTFGQGTKVEIK
As for B1, the Drug Suppression of Cal Signal at 500 pg/mL is -10% in [1]; -1% in [2]; -4% in [6]; -12% in [11]; 2% in [12]; -16% in [13]. Besides, the Drug Suppression of Cal Signal at 500 pg/mL was 72% in experiment [14]; -9% in experiment [16]; -13% in experiment [18]; -17% in experiment [19]; -4% in [20]; -4% in experiment [23]. Also, the % of signal without MORAb-003 (MORAb-003 interference) in experiment [3] stood at 70%; in experiment [5] it was 49%; in experiment [9], 73%; in [24] it was 121%. The Drug suppression of serum was -13% in [4]; -0.93% in experiment [8]; 4.49% in experiment [10]; -3.77% in experiment [15]; -22.2% in experiment [17]; 4.68% in experiment [21]. In addition, the Drug suppression of serum in experiment [22] stood at 12.1%. Besides, in experiment [7], the percent inhibition (sample #DLSO-015, serum) was determined as 21%.

For the origin of these results see US20180148504A1.
